Measured values: patent US20260028403A1 (Zymeworks, published 2026)
Numbering of substitutions follows the chain as printed. One block for each binder: values may come before it.

Columns and labels:
Cynomolgus monkey CLDN18 = molecular target: T1, Cynomolgus monkey CLDN18 (cynomolgus monkey); test: flow cytometry, HEK293-6E + cyno CLDN18, 4PL fit
T1 construct: on transfected HEK293-6E cells; also called Cyno CLDN18; cyno CLDN18.2 ortholog
T1 chain: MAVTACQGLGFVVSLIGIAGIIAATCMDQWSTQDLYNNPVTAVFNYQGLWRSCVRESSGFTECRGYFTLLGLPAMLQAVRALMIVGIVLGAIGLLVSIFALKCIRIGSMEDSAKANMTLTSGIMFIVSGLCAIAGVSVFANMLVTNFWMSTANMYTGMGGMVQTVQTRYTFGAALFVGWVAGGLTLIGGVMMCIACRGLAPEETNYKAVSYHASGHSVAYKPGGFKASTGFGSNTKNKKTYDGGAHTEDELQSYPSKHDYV
Description: (§1) The purified rabbit chimeric and humanized constructs were assessed for binding to HEK293-6E cells transfected with human, cynomolgus monkey, or mouse CLDN18.2 orthologs (TABLE 12) by flow cytometry. […] Constructs were also assessed for binding to HEK293-6E cells transfected with human CLDN18.1.

Mouse CLDN18 A2.1 = molecular target: T2, Mouse CLDN18 A2.1 (mouse, UniProt P56857 10-264); test: flow cytometry, HEK293-6E + mouse CLDN18, 4PL fit
T2 construct: on transfected HEK293-6E cells; also called Mouse CLDN18 2.1; mouse CLDN18.2 ortholog
T2 chain: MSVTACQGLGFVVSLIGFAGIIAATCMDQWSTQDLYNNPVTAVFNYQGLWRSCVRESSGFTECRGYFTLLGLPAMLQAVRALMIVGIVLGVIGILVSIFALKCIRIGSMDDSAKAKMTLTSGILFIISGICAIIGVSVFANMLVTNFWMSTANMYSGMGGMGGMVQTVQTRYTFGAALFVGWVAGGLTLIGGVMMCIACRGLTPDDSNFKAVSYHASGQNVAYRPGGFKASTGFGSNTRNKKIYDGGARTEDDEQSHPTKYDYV
Description: as §1

Human CLDN18.2 [1] = molecular target: T3, Human CLDN18.2 (human); test: flow cytometry, HEK293-6E + human CLDN18.2, 4PL fit
T3 construct: on transfected HEK293-6E cells or native on SNU 601 cells
Description: as §1

Human CLDN18.2 [2] = molecular target: T3, Human CLDN18.2; test: flow cytometry, SNU 601 cells

Bmax (Cynomolgus monkey CLDN18): 1410 | EC50 (Cynomolgus monkey CLDN18): 0.24 nM | Bmax (Mouse CLDN18 A2.1): 1540 | EC50 (Mouse CLDN18 A2.1): 0.8 nM | Bmax (Human CLDN18.2 [1]): 2040 | EC50 (Human CLDN18.2 [1]): 1.54 nM
B1: v37407 (antibody, human IgG1, V domains shown)
VH: QVQLVESGGGLVQPGGSLRLSCSVSGIDLSSNPMIWVRQAPGKGLEYIGIIDTDGSTYYADWAKGRFTISKDSTTVYLQMNSLRAEDTAVYYCARRLHGSSNGYYDDLWGQGTLVTVSS
VL: DGQMTQSPSSVSASVGDRVTITCQASQSIYSYLSWYQQKPGQRPKLLIYKASTLASGVPSRFSGSGSGTDFTLTISSVQPEDFATYYCQQGYTVTNVDKNTFGGGTKVEIK
notes: human IgG1-based monoclonal antibody; also called H4-L4

Bmax (Cynomolgus monkey CLDN18): 1500 | EC50 (Cynomolgus monkey CLDN18): 0.35 nM | Bmax (Mouse CLDN18 A2.1): 1530 | EC50 (Mouse CLDN18 A2.1): 0.89 nM | Bmax (Human CLDN18.2 [1]): 1960 | EC50 (Human CLDN18.2 [1]): 1.22 nM
B2: v37409 (antibody, human IgG1, V domains shown)
VH: QVQLVESGGGLVQPGGSLRLSCSVSGIDLSSNPMIWVRQAPGKGLEYIGIIDTDGSTYYADWAKGRFTISKDSSKNTVYLQMNSLRAEDTAVYYCARRLHGSSNGYYDDLWGQGTLVTVSS
VL: B1 VL
notes: human IgG1-based monoclonal antibody; also called H2-L4

Bmax (Cynomolgus monkey CLDN18): 1500 | EC50 (Cynomolgus monkey CLDN18): 0.31 nM | Bmax (Mouse CLDN18 A2.1): 1690 | EC50 (Mouse CLDN18 A2.1): 1.02 nM | Bmax (Human CLDN18.2 [1]): 1910 | EC50 (Human CLDN18.2 [1]): 0.97 nM
B3: v37410 (antibody, human IgG1, V domains shown)
VH: B2 VH with E46Q
VL: B1 VL
notes: human IgG1-based monoclonal antibody; also called H3-L4

Bmax (Cynomolgus monkey CLDN18): 1520 | EC50 (Cynomolgus monkey CLDN18): 0.36 nM | Bmax (Mouse CLDN18 A2.1): 1920 | EC50 (Mouse CLDN18 A2.1): 2.65 nM | Bmax (Human CLDN18.2 [1]): 2190 | EC50 (Human CLDN18.2 [1]): 1.87 nM
B4: v37408 (antibody, human IgG1, V domains shown)
VH: B1 VH
VL: B1 VL with F83A, I110V
notes: human IgG1-based monoclonal antibody; also called H4-L2

Bmax (Human CLDN18.2 [2]): 11700 MFI | EC50 (Human CLDN18.2 [2]): 8.9 nM | Bmax (Cynomolgus monkey CLDN18): 1730 | EC50 (Cynomolgus monkey CLDN18): 0.37 nM | Bmax (Mouse CLDN18 A2.1): 1790 | EC50 (Mouse CLDN18 A2.1): 1.03 nM | Bmax (Human CLDN18.2 [1]): 2170 | EC50 (Human CLDN18.2 [1]): 1.05 nM
B5: v37411 (antibody, human IgG1, V domains shown)
VH: B1 VH with E46Q, M80I, L83P
VL: B1 VL
notes: human IgG1-based monoclonal antibody; also called H5-L4; anti-CLDN18.2 mAb
